Km, kcat and kcat/Km data for seven proteins are collected here from publication PMC6277545, “Structural Basis for the Limited Response to Oxidative and Thiol-Conjugating Agents by Triosephosphate Isomerase From the Photosynthetic Bacteria Synechocystis” (Frontiers in Molecular Biosciences, 2018).

The labels stand for the following.
B1: SyTPI (Synechocystis sp. PCC 6803 substr. Kazusa; C127A/C176S/C42A) (protein)
chain: MRKIIIAGNWKMHKTQAEAQAFLQGFKPLIEDAAESREVVLAVPFTDLSGMSQQLHGGRVRLGAQNVHWEASGAYTGEISAAMLTEIGIHYVVIGHSERRQYFGETDETANLRVLAAQKAGLIPILAVGESKAQRDAGETEQVIVDQVKKGLVNVDQSNLVIAYEPIWAIGTGDTSAATEANRVIGLIREQLTNSQVTIQYGGSVNANNVDEIMAQPEIDGALVGGASLEPQSFARIVNFQP
notes: full length, codon-optimised, E. coli BL21(DE3) delta-tpi; His tag cut by PreScission, extra Gly-Pro-His before Met1; homodimer 54 kDa
B2: SyTPI (Synechocystis sp. PCC 6803 substr. Kazusa; C176S/C42A) (protein)
chain: MRKIIIAGNWKMHKTQAEAQAFLQGFKPLIEDAAESREVVLAVPFTDLSGMSQQLHGGRVRLGAQNVHWEASGAYTGEISAAMLTEIGIHYVVIGHSERRQYFGETDETANLRVLAAQKAGLIPILCVGESKAQRDAGETEQVIVDQVKKGLVNVDQSNLVIAYEPIWAIGTGDTSAATEANRVIGLIREQLTNSQVTIQYGGSVNANNVDEIMAQPEIDGALVGGASLEPQSFARIVNFQP
notes: as for B1
B3: SyTPI (Synechocystis sp. PCC 6803 substr. Kazusa; C127A/C42A) (protein)
chain: MRKIIIAGNWKMHKTQAEAQAFLQGFKPLIEDAAESREVVLAVPFTDLSGMSQQLHGGRVRLGAQNVHWEASGAYTGEISAAMLTEIGIHYVVIGHSERRQYFGETDETANLRVLAAQKAGLIPILAVGESKAQRDAGETEQVIVDQVKKGLVNVDQSNLVIAYEPIWAIGTGDTCAATEANRVIGLIREQLTNSQVTIQYGGSVNANNVDEIMAQPEIDGALVGGASLEPQSFARIVNFQP
notes: as for B1
B4: SyTPI (Synechocystis sp. PCC 6803 substr. Kazusa; C127A/C176S) (protein)
chain: MRKIIIAGNWKMHKTQAEAQAFLQGFKPLIEDAAESREVVLCVPFTDLSGMSQQLHGGRVRLGAQNVHWEASGAYTGEISAAMLTEIGIHYVVIGHSERRQYFGETDETANLRVLAAQKAGLIPILAVGESKAQRDAGETEQVIVDQVKKGLVNVDQSNLVIAYEPIWAIGTGDTSAATEANRVIGLIREQLTNSQVTIQYGGSVNANNVDEIMAQPEIDGALVGGASLEPQSFARIVNFQP
notes: as for B1
B5: SyTPI (Synechocystis sp. PCC 6803 substr. Kazusa) (protein)
chain: MRKIIIAGNWKMHKTQAEAQAFLQGFKPLIEDAAESREVVLCVPFTDLSGMSQQLHGGRVRLGAQNVHWEASGAYTGEISAAMLTEIGIHYVVIGHSERRQYFGETDETANLRVLAAQKAGLIPILCVGESKAQRDAGETEQVIVDQVKKGLVNVDQSNLVIAYEPIWAIGTGDTCAATEANRVIGLIREQLTNSQVTIQYGGSVNANNVDEIMAQPEIDGALVGGASLEPQSFARIVNFQP
notes: as for B1
B6: SyTPI (Synechocystis sp. PCC 6803 substr. Kazusa; C127A) (protein)
chain: MRKIIIAGNWKMHKTQAEAQAFLQGFKPLIEDAAESREVVLCVPFTDLSGMSQQLHGGRVRLGAQNVHWEASGAYTGEISAAMLTEIGIHYVVIGHSERRQYFGETDETANLRVLAAQKAGLIPILAVGESKAQRDAGETEQVIVDQVKKGLVNVDQSNLVIAYEPIWAIGTGDTCAATEANRVIGLIREQLTNSQVTIQYGGSVNANNVDEIMAQPEIDGALVGGASLEPQSFARIVNFQP
notes: as for B1
B7: SyTPI (Synechocystis sp. PCC 6803 substr. Kazusa; C42A) (protein)
chain: MRKIIIAGNWKMHKTQAEAQAFLQGFKPLIEDAAESREVVLAVPFTDLSGMSQQLHGGRVRLGAQNVHWEASGAYTGEISAAMLTEIGIHYVVIGHSERRQYFGETDETANLRVLAAQKAGLIPILCVGESKAQRDAGETEQVIVDQVKKGLVNVDQSNLVIAYEPIWAIGTGDTCAATEANRVIGLIREQLTNSQVTIQYGGSVNANNVDEIMAQPEIDGALVGGASLEPQSFARIVNFQP
notes: as for B1

Substrate in the series: O=CC(O)COP(=O)(O)O
The experiment in a line: coupled alpha-glycerophosphate dehydrogenase assay, A340. Type of series: biochemical, Synechocystis sp. PCC 6803. The following applies: 0.1 M TEA pH 7.4, 10 mM EDTA, 0.2 mM NADH, G3P 0-5 mM, G3P to DHAP. From the text:
coupled alpha-glycerophosphate dehydrogenase assay, A340 on SyTPI
What is called Km is the substrate concentration at which the rate is half of its maximum. For orientation: kcat means the maximal rate divided by the concentration of active sites. As usually defined, the kcat/Km is the turnover number divided by the Michaelis constant. As for B1, the Km stood at 1400 ± 150 µM, the catalytic constant (kcat) worked out at 21.3 ± 1 s⁻¹ and the kcat/Km stood at 15200 M⁻¹ s⁻¹.
For B2 the same measures were 1460 ± 20 µM, 2130 ± 62 s⁻¹ and 1.46e+06 M⁻¹ s⁻¹.
The corresponding values for B3 are 1100 ± 30 µM, 1630 ± 53 s⁻¹ and 1.48e+06 M⁻¹ s⁻¹.
As to B4, the Km amounted to 1190 ± 80 µM, the catalytic constant (kcat) stood at 683 ± 6 s⁻¹ and the catalytic efficiency (kcat/Km) came out at 573000 M⁻¹ s⁻¹.
For B5 the same measures were 800 ± 20 µM, 1850 ± 43 s⁻¹ and 2.31e+06 M⁻¹ s⁻¹.
The corresponding values for B6 are 1040 ± 80 µM, 1770 ± 56 s⁻¹ and 1.71e+06 M⁻¹ s⁻¹.
For B7 the same measures were 1010 ± 30 µM, 1780 ± 42 s⁻¹ and 1.76e+06 M⁻¹ s⁻¹.
